Data reported in patent US20090215081.

Target: T1, FLAG-TCF4, full length human TCF4 expressed from pFLAG-CMV-4, Q9NQB0
T1 chain: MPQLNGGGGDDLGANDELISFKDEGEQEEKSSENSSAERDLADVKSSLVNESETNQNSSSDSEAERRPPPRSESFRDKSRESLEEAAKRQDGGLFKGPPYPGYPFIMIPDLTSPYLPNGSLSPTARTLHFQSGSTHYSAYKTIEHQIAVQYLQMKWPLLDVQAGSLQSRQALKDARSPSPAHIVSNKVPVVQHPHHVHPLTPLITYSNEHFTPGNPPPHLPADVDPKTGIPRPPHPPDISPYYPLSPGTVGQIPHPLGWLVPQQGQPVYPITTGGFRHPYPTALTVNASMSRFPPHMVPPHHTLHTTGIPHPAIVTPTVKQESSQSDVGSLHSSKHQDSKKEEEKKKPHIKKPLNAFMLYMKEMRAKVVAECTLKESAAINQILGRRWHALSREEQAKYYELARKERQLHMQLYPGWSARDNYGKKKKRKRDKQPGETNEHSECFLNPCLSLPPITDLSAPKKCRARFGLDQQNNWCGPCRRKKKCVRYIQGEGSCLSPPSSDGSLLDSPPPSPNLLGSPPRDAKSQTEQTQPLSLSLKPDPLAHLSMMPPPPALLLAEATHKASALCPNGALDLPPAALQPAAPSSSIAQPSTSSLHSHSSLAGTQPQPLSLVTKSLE

B1: HA-TNIK, wild-type human TNIK full length expressed from pCIneo-HA-TNIK (protein)
chain: MASDSPARSLDEIDLSALRDPAGIFELVELVGNGTYGQVYKGRHVKTGQLAAIKVMDVTGDEEEEIKQEINMLKKYSHHRNIATYYGAFIKKNPPGMDDQLWLVMEFCGAGSVTDLIKNTKGNTLKEEWIAYICREILRGLSHLHQHKVIHRDIKGQNVLLTENAEVKLVDFGVSAQLDRTVGRRNTFIGTPYWMAPEVIACDENPDATYDFKSDLWSLGITAIEMAEGAPPLCDMHPMRALFLIPRNPAPRLKSKKWSKKFQSFIESCLVKNHSQRPATEQLMKHPFIRDQPNERQVRIQLKDHIDRTKKKRGEKDETEYEYSGSEEEEEENDSGEPSSILNLPGESTLRRDFLRLQLANKERSEALRRQQLEQQQRENEEHKRQLLAERQKRIEEQKEQRRRLEEQQRREKELRKQQEREQRRHYEEQMRREEERRRAEHEQEYIRRQLEEEQRQLEILQQQLLHEQALLLEYKRKQLEEQRQAERLQRQLKQERDYLVSLQHQRQEQRPVEKKPLYHYKEGMSPSEKPAWAKEVEERSRLNRQSSPAMPHKVANRISDPNLPPRSESFSISGVQPARTPPMLRPVDPQIPHLVAVKSQGPALTASQSVHEQPTKGLSGFQEALNVTSHRVEMPRQNSDPTSENPPLPTRIEKFDRSSWLRQEEDIPPKVPQRTTSISPALARKNSPGNGSALGPRLGSQPIRASNPDLRRTEPILESPLQRTSSGSSSSSSTPSSQPSSQGGSQPGSQAGSSERTRVRANSKSEGSPVLPHEPAKVKPEESRDITRPSRPASYKKAIDEDLTALAKELRELRIEETNRPMKKVTDYSSSSEESESSEEEEEDGESETHDGTVAVSDIPRLIPTGAPGSNEQYNVGMVGTHGLETSHADSFSGSISREGTLMIRETSGEKKRSGHSDSNGFAGHINLPDLVQQSHSPAGTPTEGLGRVSTHSQEMDSGTEYGMGSSTKASFTPFVDPRVYQTSPTDEDEEDEESSAAALFTSELLRQEQAKLNEARKISVVNVNPTNIRPHSDTPEIRKYKKRFNSEILCAALWGVNLLVGTENGLMLLDRSGQGKVYNLINRRRFQQMDVLEGLNVLVTISGKKNKLRVYYLSWLRNRILHNDPEVEKKQGWITVGDLEGCIHYKVVKYERIKFLVIALKNAVEIYAWAPKPYHKFMAFKSFADLQHKPLLVDLTVEEGQRLKVIFGSHTGFHVIDVDSGNSYDIYIPSHIQGNITPHAIVILPKTDGMEMLVCYEDEGVYVNTYGRITKDVVLQWGEMPTSVAYIHSNQIMGWGEKAIEIRSVETGHLDGVFMHKRAQRLKFLCERNDKVFFASVRSGGSSQVFFMTLNRNSMMNW
serine phosphorylation of TCF4 (immunoprecipitation with anti-TCF4, immunoblot with anti-phospho-serine antibody): the serine phosphorylation band of TCF4 was detected
